From publication doi:10.1101/2025.10.22.684016

Molecular target: mCherry-TurboID-CD9
Test: proximity labelling + proximity ligation

Gabrb3 (from UniProt P63080 26-473) (natural protein)
PLA puncta (Streptavidin–Gabrb3), APP-TB mice: 1530 puncta | PLA puncta (Streptavidin–Gabrb3), WT-TB mice: 1500 puncta

Ncam1 (from UniProt P13595 20-1115) (natural protein)
PLA puncta (Streptavidin–Ncam1), APP-TB mice: 1790 puncta | PLA puncta (Streptavidin–Ncam1), WT-TB mice: 1260 puncta

B1: Gad1 (enzyme)
chain: MASSTPSPATSSNAGADPNTTNLRPTTYDTWCGVAHGCTRKLGLKICGFLQRTNSLEEKSRLVSAFRERQSSKNLLSCENSDQGARFRRTETDFSNLFAQDLLPAKNGEEQTAQFLLEVVDILLNYVRKTFDRSTKVLDFHHPHQLLEGMEGFNLELSDHPESLEQILVDCRDTLKYGVRTGHPRFFNQLSTGLDIIGLAGEWLTSTANTNMFTYEIAPVFVLMEQITLKKMREIVGWSNKDGDGIFSPGGAISNMYSIMAARYKYFPEVKTKGMAAVPKLVLFTSEHSHYSIKKAGAALGFGTDNVILIKCNERGKIIPADLEAKILDAKQKGYVPLYVNATAGTTVYGAFDPIQEIADICEKYNLWLHVDAAWGGGLLMSRKHRHKLSGIERANSVTWNPHKMMGVLLQCSAILVKEKGILQGCNQMCAGYLFQPDKQYDVSYDTGDKAIQCGRHVDIFKFWLMWKAKGTVGFENQINKCLELADYLYAKIKNREEFEMVFDGEPEHTNVCFWYIPQSLRGVPDSPERREKLHRVAPKIKALMMESGTTMVGYQPQGDKANFFRMVISNPAATQSDIDFLIEEIERLGQDL
PLA puncta (Streptavidin–Gad1), APP-TB mice: 2120 puncta
